Measurements from the supplement of paper PMC10567573.

B1: CPOX (parent)
chain: HAPTIHFNYRYFEVEEADGNKQWW

Variants of: B1
Assay: protein stability index of a GFP-peptide fusion (GPS, HEK-293T) (PSI 1-6); higher = more stable
Conditions: c terminus: a fixed tail appended
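Further: lentivirally expressed fusions sorted by FACS into six bins by GFP to DsRed ratio, PSI derived from sequencing read proportions per bin multiplied by bin number.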

Point of comparison: HAPTIHFNYRYFEVEEADGNKQWY, protein stability index 2.51. Against it:
- HAPTIVFNYRYFEVEEADGNKQWW — lower, 1.61
- HAPTIHFNYRYFEVEEADGQKQWW — higher, 2.95
- HAPTIHFNYRYFEVEEADGYKQWW — lower, 1.66
- HAPTIHFNYRYFEVEEADGIKQWW — lower, 2.34
- HAPTIHFNYRYFEVEEADGTKQWW — higher, 2.85
- HAPTIHFNYRYFEVEEADGNKIWW — lower, 2.3
- HAPTIHFNYRYFEVEEADGNKSWW — lower, 1.59
- HAPTIHFFYRYFEVEEADGNKQWW — lower, 1.79
- HAPTIHFEYRYFEVEEADGNKQWW — lower, 2.1
- HAPTIHFNYRYFEVEEAPGNKQWW — lower, 1.71
- HAPTNHFNYRYFEVEEADGNKQWW — higher, 2.9
- HAPTPHFNYRYFEVEEADGNKQWW — higher, 2.78
- HAPTMHFNYRYFEVEEADGNKQWW — higher, 3.15
- HAPTWHFNYRYFEVEEADGNKQWW — lower, 2.47
- HAPTCHFNYRYFEVEEADGNKQWW — lower, 2.4
- HAPTRHFNYRYFEVEEADGNKQWW — higher, 2.64
- HAPTIHFNYRYFEVWEADGNKQWW — lower, 2.4
- HAPTIHFNYRYFEVVEADGNKQWW — lower, 1.79
- HAPTIHFNYRYFEVNEADGNKQWW — lower, 1.84
- HAPTIHFNYRYFEVAEADGNKQWW — lower, 1.93
- HAPTIHFNYRKFEVEEADGNKQWW — higher, 2.84
- HAPTIHFNYRTFEVEEADGNKQWW — higher, 3.23
- HAPTIHFNYRIFEVEEADGNKQWW — lower, 2.16
- HAPTIHFNYRGFEVEEADGNKQWW — higher, 2.62
- HAPTIHFNYRNFEVEEADGNKQWW — higher, 2.98
- HAPTIHFNYRAFEVEEADGNKQWW — higher, 3.23
- HAPTIHFNYRYFEGEEADGNKQWW — higher, 3.15
- HAPTIHFNYRYFEFEEADGNKQWW — lower, 2.11
- HAPTIHFNYRYFEIEEADGNKQWW — lower, 2.44
- HAPTIHFNYRYFEVEEADRNKQWW — lower, 2.25
- HAPTIHFNYRYFEVEEADENKQWW — lower, 2.48
- HAPTIHFNYRYFEVEEADYNKQWW — higher, 3.23
- HAPTIHFNYRYFEVEEADINKQWW — lower, 2.07
- HAPTIHFNYRYFEVEEADGNIQWW — lower, 2.25
- HAPTIHFNYRYFEVEEADGNDQWW — higher, 2.52
- HAPTIHFNYRYFEVEEADGNLQWW — lower, 1.74
- HARTIHFNYRYFEVEEADGNKQWW — higher, 2.69
- HAITIHFNYRYFEVEEADGNKQWW — higher, 2.92
- HAFTIHFNYRYFEVEEADGNKQWW — higher, 2.6
- HALTIHFNYRYFEVEEADGNKQWW — lower, 2.49
- HAHTIHFNYRYFEVEEADGNKQWW — lower, 2.2
- HAPGIHFNYRYFEVEEADGNKQWW — higher, 2.57
- HAPYIHFNYRYFEVEEADGNKQWW — lower, 1.39
- HAPKIHFNYRYFEVEEADGNKQWW — lower, 2.26
- HAPSIHFNYRYFEVEEADGNKQWW — higher, 2.8
- HAPFIHFNYRYFEVEEADGNKQWW — lower, 2.12
- HAPAIHFNYRYFEVEEADGNKQWW — lower, 2.38
- SAPTIHFNYRYFEVEEADGNKQWW — higher, 2.89
- QAPTIHFNYRYFEVEEADGNKQWW — higher, 2.96
- TAPTIHFNYRYFEVEEADGNKQWW — higher, 2.91
- HDPTIHFNYRYFEVEEADGNKQWW — higher, 2.94
- HQPTIHFNYRYFEVEEADGNKQWW — higher, 3.31
- HWPTIHFNYRYFEVEEADGNKQWW — lower, 2.02
- HKPTIHFNYRYFEVEEADGNKQWW — lower, 2.38
- HFPTIHFNYRYFEVEEADGNKQWW — lower, 2.26
- HAPTIHHNYRYFEVEEADGNKQWW — higher, 3.35
- HAPTIHKNYRYFEVEEADGNKQWW — higher, 3.03
- HAPTIHANYRYFEVEEADGNKQWW — higher, 3.4
- HAPTIHDNYRYFEVEEADGNKQWW — higher, 2.89
- HAPTIHCNYRYFEVEEADGNKQWW — lower, 2.35
- HAPTIHQNYRYFEVEEADGNKQWW — higher, 3.21
- HAPTIHFNYRYFEVEEFDGNKQWW — lower, 1.97
- HAPTIHFNYRYFEVEEQDGNKQWW — lower, 2.31
- HAPTIHFNYRYFEVEEMDGNKQWW — lower, 2.27
- HAPTIHFNYRYFEVEEYDGNKQWW — lower, 1.77
- HAPTIHFNYRYFEVEEIDGNKQWW — lower, 1.86
- HAPTIHFNYRYFEVEERDGNKQWW — lower, 2.02
- HAPTIHFNYRYFEVEFADGNKQWW — lower, 1.44
- HAPTIHFNYRYFEVERADGNKQWW — lower, 1.91
- HAPTIHFNYSYFEVEEADGNKQWW — lower, 2.07
- HAPTIHFNYKYFEVEEADGNKQWW — lower, 2.47
- HAPTIHFNYTYFEVEEADGNKQWW — higher, 2.55
- HAPTIHFNYAYFEVEEADGNKQWW — higher, 2.56
- HAPTIHFNYDYFEVEEADGNKQWW — higher, 3.03
- HAPTIHFNYLYFEVEEADGNKQWW — lower, 2.25
- HAPTIHFNYNYFEVEEADGNKQWW — lower, 2.12
- HAPTIHFNRRYFEVEEADGNKQWW — higher, 3.23
- HAPTIHFNTRYFEVEEADGNKQWW — higher, 2.79
- HAPTIHFNKRYFEVEEADGNKQWW — higher, 3.37
- HAPTIHFNNRYFEVEEADGNKQWW — higher, 3.16
- HAPTIHFNYRYFEVEEADGNKQFW — lower, 2.04
- HAPTIHFNYRYFEVEEADGNKQQW — higher, 3.38
- HAPTIHFNYRYFEVEEADGNKQIW — higher, 2.58
- HAPTIHFNYRYFEVEEADGNKQMW — higher, 3.04
- HAPTIHFNYRYFEVEEADGNKQCW — lower, 2.07
- HAPTIHFNYRYFEVEEADGNKQEW — higher, 4.22
- HAPTIHFNYRYGEVEEADGNKQWW — higher, 3.51
- HAPTIHFNYRYDEVEEADGNKQWW — higher, 3.51
- HAPTIHFNYRYCEVEEADGNKQWW — lower, 2.02
- HAPTIHFNYRYEEVEEADGNKQWW — higher, 2.99
- HAPTIHFNYRYPEVEEADGNKQWW — higher, 3.12
- HAPTIHFNYRYMEVEEADGNKQWW — higher, 2.52
- HAPTIHFNYRYFEVEEADGNKQWE — higher, 3.06
